From publication PMC7064642
pKd: −log10 of the molar value.

Biological target: importin-α/β carrier protein complex (α/β importin heterodimer)
Experiment: MST; importin β labelled with Cy3; α/β importin heterodimers at equimolar 50 nM; MNT serially diluted from 1 µM (MNT_(N-EGF)) or 4 µM (MNT_(N-affibody), MNT_(C-EGF)); 20 mM HEPES pH 7.4, 110 mM KCl, 5 mM NaHCO3, 5 mM MgCl2, 0.1 mM CaCl2, 1 mM EGTA, 1 mM DTT; Monolith NT.115

“6His-DTox-HMP-NLS-EGF modular nanotransporter (MNT_(C-EGF))” was tested, and the pKd was 6.90.

For “EGF-6His-DTox-HMP-NLS modular nanotransporter (MNT_(N-EGF))”, the pKd was 7.80.
